What was measured:
[1] = biological target: mouse TfR protein (mouse) (UniProt Q62351)
Aβ1-40 monomers = Aβ1-40 monomers (UniProt P05067); assay: ELISA; sandwich ELISA; 1 nM Aβ1-40 monomers or 1 nM Aβ1-42 aggregates held by coated rabbit polyclonal antibodies (C-terminal of Aβ, or Aβ1-42); serial dilutions of the recombinant proteins in 0.1% BSA, 0.05% Tween-20 in PBS, 2 h at RT; goat anti-mouse HRP
Aβ1-42 aggregates = Aβ1-42 aggregates (UniProt P05067); assay: as above
Sequence of Aβ1-42 aggregates (P05067 672-713): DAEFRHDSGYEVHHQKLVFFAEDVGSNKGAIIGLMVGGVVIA

Sequence of Aβ1-40 monomers (P05067 672-711): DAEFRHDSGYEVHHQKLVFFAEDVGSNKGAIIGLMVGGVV

## sNEP-scFc-scFv8D3 (Fc fusion)
[1]
  brain uptake (%ID per gram brain tissue) 2 h after intravenous injection of the 125I-labelled protein (0.05 mg/kg) in tg-ArcSwe mice, against sNEP without scFv8D3: 20 fold
Aβ1-40 monomers
  fold weaker binding than the 3D6 antibody control: 50 fold
Aβ1-42 aggregates
  fold weaker binding than the 3D6 antibody control: 100 fold

From article PMC9720954
